Key:
[1] = molecular target: HIV-1 HXB2 Env (gp41 N-trimer region) (HIV-1 HXB2, UniProt P04578 33-856); test: cell-based or functional assay
[2] = molecular target: HIV-1 JRFL Env (gp41 N-trimer region) (HIV-1 JRFL); test: cell-based or functional assay
IZN36 (biotinylated …) = molecular target: T1, IZN36 (biotinylated Cys-Gly-Gly-Asp-IZN36, His tag removed); test: SPR, immobilised IZN36; compared with MBP-C37
T1 construct: also called biotinylated IZN36

Row | Binder | IC50, viral infectivity HXB2 [1] | IC50, viral infectivity JRFL [2] | KD difference from MBP-C37 (IZN36 (biotinylated …)) | IC50, cell-cell fusion (HXB2 Env) [1] | IC50 ratio (cell-cell fusion), relative to C37 [1] | IC50 ratio HXB2 (viral infectivity), relative to C37 [1] | IC50 ratio JRFL (viral infectivity), relative to C37 [2]
1 | MBP1-C37 (other, domain: C-peptide (C37)) SSSGGGSGGGSGGGSSSSGGHTTWMEWDREINNYTSLIHSLIEESQNQQEKNEQELLHHHHHH | 88.9 nM | 640 nM | < 20% | – | – | – | –
2 | MBP2-C37 (other, domain: C-peptide (C37)) SSSGGGSGGGSGGGSSGGGSGGGSGGGSSSSGGHTTWMEWDREINNYTSLIHSLIEESQNQQEKNEQELLHHHHHH | 79.2 nM | 516 nM | < 20% | – | – | – | –
3 | SSSSSGGHTTWMEWDREINNYTSLIHSLIEESQNQQEKNEQELLHHHHHH (other) [MBP-C37] | 206 nM | 1870 nM | – | 192 nM | 225 | 74.8 | 228
